# Measured values published in patent US20230021388A1 (VELOSBIO, published 2023).
# Residue numbers refer to the chain shown, from its start. Names may count otherwise.
# B1: Ab1 Fab variant H1 T32A + H2 F58I (Fab, V domains shown)
# VH: QVQLQESGPGLVKPSQTLSLTCTVSGYAFAAYNIHWVRQAPGQGLEWMGSIDPYDGGSSYNQKFKDRLTISKDTSKNQVVLTMTNMDPVDTATYYCARGWYYFDYWGHGTLVTVSS
# VL: DIVMTQTPLSLPVTPGEPASISCRASKSISKYLAWYQQKPGQAPRLLIYSGSTLQSGIPPRFSGSGYGTDFTLTINNIESEDAAYYFCQQHDESPYTFGEGTKVEIK
# notes: Fab
# B2: Ab1 Fab variant H1 T32A + H2 F58I, G66E (Fab, V domains shown)
# VH: B1 VH with G56E
# VL: B1 VL
# notes: Fab
# B3: Ab1 Fab variant H1 T32A + H2 G66E, S69V, N71H (Fab, V domains shown)
# VH: B1 VH with I51F, G56E, S59V, N61H
# VL: B1 VL
# notes: Fab
# B4: Ab1 Fab variant H1 T32A + H2 G66E (Fab, V domains shown)
# VH: B1 VH with I51F, G56E
# VL: B1 VL
# notes: Fab
# B5: Ab1 Fab variant H1 T32A + H2 F58V, N71H (Fab, V domains shown)
# VH: B1 VH with I51V, N61H
# VL: B1 VL
# notes: Fab
# B6: Ab1 Fab variant H1 T32A + H2 F58V (Fab, V domains shown)
# VH: B1 VH with I51V
# VL: B1 VL
# notes: Fab
# B7: Ab1 Fab variant H1 T32A + H2 F58V, G66E (Fab, V domains shown)
# VH: B1 VH with I51V, G56E
# VL: B1 VL
# notes: Fab
# B8: Ab1 Fab variant H1 T32A + H2 F58V, G66E, S69V (Fab, V domains shown)
# VH: B1 VH with I51V, G56E, S59V
# VL: B1 VL
# notes: Fab
# B9: Ab1 Fab variant H1 T32A + H2 F58I, N71H (Fab, V domains shown)
# VH: B1 VH with N61H
# VL: B1 VL
# notes: Fab
# B10: Ab1 Fab variant H1 T32A + H2 N71H (Fab, V domains shown)
# VH: B1 VH with I51F, N61H
# VL: B1 VL
# notes: Fab
# B11: Ab1 Fab variant H1 T32A + H2 F58I, S69V (Fab, V domains shown)
# VH: B1 VH with S59V
# VL: B1 VL
# notes: Fab
# B12: Ab1 Fab variant H1 T32A + H2 F58V, S69V, N71H (Fab, V domains shown)
# VH: B1 VH with I51V, S59V, N61H
# VL: B1 VL
# notes: Fab
# B13: Ab1 Fab variant H1 T32A + H2 F58I, G66E, N71H (Fab, V domains shown)
# VH: B1 VH with G56E, N61H
# VL: B1 VL
# notes: Fab
# B14: Ab1 Fab variant H1 T32A + H2 S69V (Fab, V domains shown)
# VH: B1 VH with I51F, S59V
# VL: B1 VL
# notes: Fab
# B15: Ab1 Fab variant L3 E111I (Fab, V domains shown)
# VH: B1 VH with A30T, I51F
# VL: B1 VL with E93I
# notes: Fab
# B16: Ab1 Fab variant L3 S135P (Fab, V domains shown)
# VH: B1 VH with A30T, I51F
# VL: B1 VL with S94P
# notes: Fab
# B17: Ab1 Fab variant H3 Y138T (Fab, V domains shown)
# VH: B1 VH with A30T, I51F, Y105T
# VL: B1 VL
# notes: Fab
# B18: Ab1 Fab variant L3 D110H (Fab, V domains shown)
# VH: B1 VH with A30T, I51F
# VL: B1 VL with D92H
# notes: Fab
# B19: Ab1 Fab variant L3 D110N (Fab, V domains shown)
# VH: B1 VH with A30T, I51F
# VL: B1 VL with D92N
# notes: Fab
# B20: Ab1 Fab variant L3 Q108A (Fab, V domains shown)
# VH: B1 VH with A30T, I51F
# VL: B1 VL with Q90A
# notes: Fab
# B21: Ab1 Fab variant L3 Q107S (Fab, V domains shown)
# VH: B1 VH with A30T, I51F
# VL: B1 VL with Q89S
# notes: Fab
# B22: Ab1 Fab variant L3 H109N (Fab, V domains shown)
# VH: B1 VH with A30T, I51F
# VL: B1 VL with H91N
# notes: Fab
# B23: Ab1 Fab variant L3 Q108L (Fab, V domains shown)
# VH: B1 VH with A30T, I51F
# VL: B1 VL with Q90L
# notes: Fab
# B24: Ab1 Fab variant L3 T138S (Fab, V domains shown)
# VH: B1 VH with A30T, I51F
# VL: B1 VL with T97S
# notes: Fab
# B25: Ab1 Fab variant L3 Y137V (Fab, V domains shown)
# VH: B1 VH with A30T, I51F
# VL: B1 VL with Y96V
# notes: Fab
# B26: Ab1 Fab variant L3 H109Q (Fab, V domains shown)
# VH: B1 VH with A30T, I51F
# VL: B1 VL with H91Q
# notes: Fab
# B27: Ab1 Fab variant L3 S135H (Fab, V domains shown)
# VH: B1 VH with A30T, I51F
# VL: B1 VL with S94H
# notes: Fab
# B28: Ab1 Fab variant L3 S135G (Fab, V domains shown)
# VH: B1 VH with A30T, I51F
# VL: B1 VL with S94G
# notes: Fab
# B29: Ab1 Fab variant L3 E111L (Fab, V domains shown)
# VH: B1 VH with A30T, I51F
# VL: B1 VL with E93L
# notes: Fab
# B30: Ab1 Fab variant H3 Y138V (Fab, V domains shown)
# VH: B1 VH with A30T, I51F, Y105V
# VL: B1 VL
# notes: Fab
# B31: Ab1 Fab variant L3 Y137T (Fab, V domains shown)
# VH: B1 VH with A30T, I51F
# VL: B1 VL with Y96T
# notes: Fab
# B32: Ab1 Fab variant L3 Q108R (Fab, V domains shown)
# VH: B1 VH with A30T, I51F
# VL: B1 VL with Q90R
# notes: Fab
# B33: Ab1 Fab variant L3 S135V (Fab, V domains shown)
# VH: B1 VH with A30T, I51F
# VL: B1 VL with S94V
# notes: Fab
# B34: Ab1 Fab variant L3 T138F (Fab, V domains shown)
# VH: B1 VH with A30T, I51F
# VL: B1 VL with T97F
# notes: Fab
# B35: Ab1 Fab variant H1 T32A + L1 A25P, K29S + L2 T69R (Fab, V domains shown)
# VH: B1 VH with I51F
# VL: B1 VL with A25P, K27S, T53R
# notes: Fab
# Biological target: T1, recombinant human ROR1 extracellular domain (human, UniProt Q01973 30-406)
# T1 construct: biotinylated for the filter lifts; also called huROR1-ECD; human ROR1-ECD
# T1 sequence (Q01973 30-406 limits assumed): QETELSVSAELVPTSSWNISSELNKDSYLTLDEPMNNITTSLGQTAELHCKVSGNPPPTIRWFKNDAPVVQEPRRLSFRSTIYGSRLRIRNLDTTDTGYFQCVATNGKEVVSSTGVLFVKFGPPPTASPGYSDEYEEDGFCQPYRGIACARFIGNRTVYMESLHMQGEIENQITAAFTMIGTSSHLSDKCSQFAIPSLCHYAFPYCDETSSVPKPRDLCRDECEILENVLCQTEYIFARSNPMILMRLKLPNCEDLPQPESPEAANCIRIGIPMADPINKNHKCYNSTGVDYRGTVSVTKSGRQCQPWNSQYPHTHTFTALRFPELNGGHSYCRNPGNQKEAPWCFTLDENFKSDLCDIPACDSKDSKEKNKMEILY
# Assay: ELISA with prolonged wash, soluble Fab on coated huROR1-ECD
# Method: (§1) The previously described filter lift assay provides a visual, qualitative assessment of antigen binding (Example 1). In order to assess the ROR1 binding activity of Ab1 Fab in a more quantitative fashion, an ELISA assay was developed. A 96-well Costar-3366 plate was coated with 50 μL/well of 1 μg/mL human ROR1-ECD (ACROBiosystems, cat. #RO1-H522y) in PBS overnight at 4° C. The plate was rinsed once with PBS-T and blocked with 100 μL/well of 5% M-P for 1 h at 25° C. Fab samples were serially diluted 3-fold using 5% M-P and 50 μL/well was incubated for 1 h at 25° C. The plate was washed three times with PBS-T and 50 μL/well anti-human kappa, and HRP conjugate (Southern Biotech, cat. #2060-05) diluted 10,000-fold in 5% M-P was added for 1 h at 25° C. In certain assays (extended wash format), the plate was placed in large volumes (up to 1 L) of PBS-T and incubated, with mixing, for 2-5 h prior to the addition of anti-human kappa, HRP conjugate. The plate was washed three times with PBS-T, and developed with 50 μL/well 1-Step Ultra TMB-ELISA (Thermo Scientific, cat. #34028). The reaction was terminated by the addition of 2 N H2504 and the A450 was determined using a Spectramax plate reader.
# (§2) Subsequently, the libraries were screened by capture lift to identify the strongest binding variants. The identity of the variants was determined by DNA sequencing and the relative affinities were characterized using an ELISA (described in Example 2) modified to enable further discrimination between the highest affinity variants. Specifically, following the initial incubation with soluble Fab, the plates were washed for a prolonged time (>1 h) in large volumes of PBS-T. The plates were then developed as described in Example 2.
row,Binder,Kd [nM]
1,B1,4.5
2,B2,5
3,B3,3.2
4,B4,2.7
5,B5,2.4
6,B6,3.2
7,B7,3
8,B8,8
9,B9,2.2
10,B10,2.1
11,B11,8.5
12,B12,3.9
13,B13,3.4
14,B14,3.3

# Biological target: T1, recombinant human ROR1 extracellular …
# Assay: capture filter lift
# Method: Subsequently, the filter was applied to the agar plates as described above. For detection of antigen binding, the filter was rinsed briefly in PBS, and transferred to biotinylated huROR1-ECD (ACROBiosystems, cat. #RO1-H522y) in 5% M-P.
# Filters were incubated with 2.3 nM biotinylated ROR1 diluted in 5% M-P for 2 h at 25° C. with constant agitation, and washed 5 times, 2 minutes each wash, with constant agitation in PBS-T. Alternatively, filters were washed more rapidly using a squirt bottle and sintered glass funnel for vacuum filtration. The filters were transferred to 10 mL of High Sensitivity Neutravidin, HRP conjugate (Thermo Scientific, cat. #31030) diluted 5000-fold in 1% BSA in PBS and incubated for 1 h at 25° C. The filters were then washed 5 times in PBS-T and were developed with 1-Step Ultra TMB-Blotting.
# All libraries were initially screened by capture lift to identify variants with improved binding. The capture lift assay, described in Example 1, enables the filter lift assay to discern variants that bind antigen more strongly based on the staining intensity. In order to determine the optimal concentration of antigen to use for screening, biotinylated huROR1-ECD was titrated on a capture lift of Ab1 Fab. Binding to Ab1 was clearly visible at antigen concentrations ≥23 nM and the signal was diminished at lower huROR1 concentrations. […] In addition, for more stringent screening, filters were probed with lower concentrations of antigen and/or development of the filter was terminated earlier, before the Ab1 staining was visible. […] In this example, approximately 250 library variants were plated. Twelve variants clearly bound huROR1 (FIG. 4, numbered).
row,Binder,binding result
1,B15,binds
2,B16,binds
3,B17,binds
4,B18,binds
5,B19,binds
6,B20,binds
7,B21,binds
8,B22,binds
9,B23,binds
10,B24,binds
11,B25,binds
12,B26,binds
13,B27,binds
14,B28,binds
15,B29,binds
16,B30,binds
17,B31,binds
18,B32,binds
19,B33,binds
20,B34,binds

# Biological target: T1, recombinant human ROR1 extracellular …
# Assay: ELISA with prolonged wash, soluble Fab on coated huROR1-ECD
# Remark: another data set of the same source
# Method: as §1, §2
row,Binder,Kd [nM]
1,B35,3.9
